Test results reported in patent US20110105407A1.

Target: proMMP-9 (UniProt P14780)
Experiment: cell-based or functional assay

Chain of proMMP-9 (P14780 20-707 limits assumed): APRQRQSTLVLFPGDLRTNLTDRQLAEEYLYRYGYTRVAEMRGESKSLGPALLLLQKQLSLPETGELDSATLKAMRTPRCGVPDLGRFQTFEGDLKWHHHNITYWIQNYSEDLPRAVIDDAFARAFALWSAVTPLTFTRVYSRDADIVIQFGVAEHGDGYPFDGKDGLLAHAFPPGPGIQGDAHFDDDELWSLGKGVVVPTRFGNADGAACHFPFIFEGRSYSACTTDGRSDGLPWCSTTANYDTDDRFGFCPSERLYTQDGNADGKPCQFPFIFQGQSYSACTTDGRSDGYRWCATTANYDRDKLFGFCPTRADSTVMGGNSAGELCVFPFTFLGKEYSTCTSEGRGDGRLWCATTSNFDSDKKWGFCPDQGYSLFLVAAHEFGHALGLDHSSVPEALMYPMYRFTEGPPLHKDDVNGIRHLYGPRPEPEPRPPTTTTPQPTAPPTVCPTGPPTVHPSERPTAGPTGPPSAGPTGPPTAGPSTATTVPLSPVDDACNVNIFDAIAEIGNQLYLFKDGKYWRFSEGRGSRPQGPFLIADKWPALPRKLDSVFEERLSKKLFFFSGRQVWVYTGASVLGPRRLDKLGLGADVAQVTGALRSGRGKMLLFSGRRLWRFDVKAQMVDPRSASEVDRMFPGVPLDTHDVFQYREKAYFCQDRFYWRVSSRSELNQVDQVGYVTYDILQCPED

release of proMMP-9 from RCC-53 into the medium (gelatinase zymography); concentration from which a decrease was seen: 10 ng/mL
Substance: TIMP-1-GPI (from UniProt P01033 24-207; P19256 202-237)
